Assays:
[1] = target: FGFR1 (UniProt P11362); assay: phosphorylation enrichment, bacterial display (enrichment ratio); higher = better substrate or ligand; peptides without Tyr show the background
[2] = target: Fes (UniProt P07332); assay: as above
[3] = target: FGFR3 (UniProt P22607); assay: as above
[4] = target: MERTK (UniProt Q12866); assay: as above
[5] = target: EPHB1 (UniProt P54762); assay: as above
[6] = test system: c-Src; assay: as above
[7] = target: Hck (UniProt P08631); assay: as above
[8] = target: Jak2 (UniProt O60674); assay: as above
Chain of Jak2 (O60674 whole entry, looked up): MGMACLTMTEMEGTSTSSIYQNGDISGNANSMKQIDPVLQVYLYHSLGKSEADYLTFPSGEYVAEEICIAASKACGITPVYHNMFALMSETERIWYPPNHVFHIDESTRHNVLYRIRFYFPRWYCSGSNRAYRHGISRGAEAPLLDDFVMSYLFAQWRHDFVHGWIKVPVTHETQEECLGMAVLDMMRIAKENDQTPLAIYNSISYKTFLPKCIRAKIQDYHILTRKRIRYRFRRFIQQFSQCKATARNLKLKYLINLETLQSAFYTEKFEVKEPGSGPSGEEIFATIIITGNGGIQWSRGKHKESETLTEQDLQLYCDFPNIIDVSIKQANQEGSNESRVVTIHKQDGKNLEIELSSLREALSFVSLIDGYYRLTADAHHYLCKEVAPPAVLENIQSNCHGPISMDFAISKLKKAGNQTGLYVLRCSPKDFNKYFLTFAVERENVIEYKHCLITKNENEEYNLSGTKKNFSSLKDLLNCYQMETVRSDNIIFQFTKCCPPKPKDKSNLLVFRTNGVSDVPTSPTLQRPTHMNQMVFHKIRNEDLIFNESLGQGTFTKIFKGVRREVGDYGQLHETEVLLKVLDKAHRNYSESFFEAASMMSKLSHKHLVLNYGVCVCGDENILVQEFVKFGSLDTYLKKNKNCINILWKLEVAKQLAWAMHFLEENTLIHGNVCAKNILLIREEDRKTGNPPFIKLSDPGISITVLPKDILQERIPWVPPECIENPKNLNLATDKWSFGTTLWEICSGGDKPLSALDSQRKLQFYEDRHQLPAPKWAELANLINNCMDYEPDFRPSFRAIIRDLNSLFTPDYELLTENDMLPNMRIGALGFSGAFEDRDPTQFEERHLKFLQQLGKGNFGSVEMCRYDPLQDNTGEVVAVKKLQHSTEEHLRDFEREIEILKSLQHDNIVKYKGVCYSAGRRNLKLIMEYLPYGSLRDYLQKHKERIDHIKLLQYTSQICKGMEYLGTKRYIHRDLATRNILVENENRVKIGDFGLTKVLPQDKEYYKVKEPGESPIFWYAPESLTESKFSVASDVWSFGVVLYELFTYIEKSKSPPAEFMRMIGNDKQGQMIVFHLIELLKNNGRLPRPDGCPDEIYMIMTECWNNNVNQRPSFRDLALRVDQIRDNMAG

[9] = target: Fyn (UniProt P06241); assay: as above
Chain of Fyn (P06241 whole entry, looked up): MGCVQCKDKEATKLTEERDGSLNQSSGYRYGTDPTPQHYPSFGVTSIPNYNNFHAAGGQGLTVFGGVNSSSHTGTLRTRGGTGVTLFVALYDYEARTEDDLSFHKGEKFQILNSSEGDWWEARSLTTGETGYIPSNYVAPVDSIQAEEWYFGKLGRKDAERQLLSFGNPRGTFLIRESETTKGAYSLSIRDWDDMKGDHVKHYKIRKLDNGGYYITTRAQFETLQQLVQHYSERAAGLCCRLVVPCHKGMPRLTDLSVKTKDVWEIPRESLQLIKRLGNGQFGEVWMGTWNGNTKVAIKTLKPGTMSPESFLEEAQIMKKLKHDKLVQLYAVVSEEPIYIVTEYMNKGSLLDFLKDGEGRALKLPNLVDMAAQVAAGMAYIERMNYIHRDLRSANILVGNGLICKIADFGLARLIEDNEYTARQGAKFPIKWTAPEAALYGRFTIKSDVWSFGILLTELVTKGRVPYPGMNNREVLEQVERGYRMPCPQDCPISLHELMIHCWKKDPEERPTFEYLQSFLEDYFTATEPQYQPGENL

[10] = target: EPHB2 (UniProt P29323); assay: as above
[11] = test system: AncSZ; assay: as above
[12] = test system: Fer (mouse); assay: as above
[13] = test system: c-Abl (mouse); assay: as above
[14] = target: c-Src SH2; assay: SH2 binding enrichment of the phosphorylated peptide, bacterial display (enrichment ratio); higher = better substrate or ligand; peptides without Tyr show the background
[15] = target: SHP2-C SH2; assay: as above
[16] = target: Grb2 SH2 (UniProt P62993); assay: as above
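Wherever SH2 binding enrichment of the phosphorylated peptide, bacterial display is given: peptide library displayed on the E. coli surface as eCPX fusions, selected cells deep-sequenced, score is each peptide's frequency after selection divided by its frequency in the input.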
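Wherever phosphorylation enrichment, bacterial display is given: 11-residue human phosphosite peptides and single-mutation variants displayed on the E. coli surface, counted by deep sequencing, each peptide's frequency after selection divided by its frequency in the unselected input library; frequency after pTyr selection over input frequency; kinase dosed for 20-30% of maximal phosphorylation in three min.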

Chain of Fes (P07332 whole entry, looked up): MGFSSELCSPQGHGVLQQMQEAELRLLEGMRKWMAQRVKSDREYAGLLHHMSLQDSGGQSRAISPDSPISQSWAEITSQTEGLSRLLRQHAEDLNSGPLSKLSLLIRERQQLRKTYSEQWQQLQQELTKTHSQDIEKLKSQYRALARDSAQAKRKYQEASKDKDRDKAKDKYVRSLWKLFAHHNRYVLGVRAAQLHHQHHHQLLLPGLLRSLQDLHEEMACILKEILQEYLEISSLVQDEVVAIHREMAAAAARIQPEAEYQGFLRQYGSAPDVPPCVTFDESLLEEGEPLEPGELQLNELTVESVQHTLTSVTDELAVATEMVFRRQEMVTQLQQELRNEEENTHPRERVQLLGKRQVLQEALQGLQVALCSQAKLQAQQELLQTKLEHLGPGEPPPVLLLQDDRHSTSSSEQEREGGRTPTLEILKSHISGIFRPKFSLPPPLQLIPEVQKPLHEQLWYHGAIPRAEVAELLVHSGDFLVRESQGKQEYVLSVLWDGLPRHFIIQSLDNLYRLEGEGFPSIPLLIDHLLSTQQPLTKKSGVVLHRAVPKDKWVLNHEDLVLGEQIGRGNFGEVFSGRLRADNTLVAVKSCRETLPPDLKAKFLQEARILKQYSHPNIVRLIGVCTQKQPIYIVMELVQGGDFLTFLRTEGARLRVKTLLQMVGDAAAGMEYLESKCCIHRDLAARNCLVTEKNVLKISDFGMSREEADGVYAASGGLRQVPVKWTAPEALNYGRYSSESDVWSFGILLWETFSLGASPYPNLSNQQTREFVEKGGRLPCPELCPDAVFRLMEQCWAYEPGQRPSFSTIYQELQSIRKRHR
Chain of EPHB1 (P54762 whole entry, looked up): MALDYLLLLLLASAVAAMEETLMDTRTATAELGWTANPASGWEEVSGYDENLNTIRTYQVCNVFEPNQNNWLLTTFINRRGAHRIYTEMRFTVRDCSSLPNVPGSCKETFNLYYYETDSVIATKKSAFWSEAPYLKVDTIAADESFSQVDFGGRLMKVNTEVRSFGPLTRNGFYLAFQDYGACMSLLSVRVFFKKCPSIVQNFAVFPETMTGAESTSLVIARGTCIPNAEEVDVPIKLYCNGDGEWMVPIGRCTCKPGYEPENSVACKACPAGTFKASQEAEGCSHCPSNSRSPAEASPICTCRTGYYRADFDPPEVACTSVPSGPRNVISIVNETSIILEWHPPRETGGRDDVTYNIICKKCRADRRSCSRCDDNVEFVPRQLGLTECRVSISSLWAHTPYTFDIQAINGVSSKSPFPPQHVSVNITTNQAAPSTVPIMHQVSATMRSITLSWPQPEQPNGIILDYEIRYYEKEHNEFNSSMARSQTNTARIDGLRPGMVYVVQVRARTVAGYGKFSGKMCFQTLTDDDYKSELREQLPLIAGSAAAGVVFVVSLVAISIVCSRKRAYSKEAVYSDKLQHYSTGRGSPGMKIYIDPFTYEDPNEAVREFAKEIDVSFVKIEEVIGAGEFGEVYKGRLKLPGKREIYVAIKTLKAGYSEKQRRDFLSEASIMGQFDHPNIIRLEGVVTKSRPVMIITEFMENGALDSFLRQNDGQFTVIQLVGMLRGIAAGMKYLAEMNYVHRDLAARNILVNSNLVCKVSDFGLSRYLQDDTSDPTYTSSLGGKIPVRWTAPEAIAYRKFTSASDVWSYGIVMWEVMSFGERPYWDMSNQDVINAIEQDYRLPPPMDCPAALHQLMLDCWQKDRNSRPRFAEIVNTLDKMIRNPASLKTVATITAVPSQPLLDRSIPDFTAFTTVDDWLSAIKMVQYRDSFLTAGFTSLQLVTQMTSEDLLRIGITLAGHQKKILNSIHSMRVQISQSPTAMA
Chain of FGFR1 (P11362 whole entry, looked up): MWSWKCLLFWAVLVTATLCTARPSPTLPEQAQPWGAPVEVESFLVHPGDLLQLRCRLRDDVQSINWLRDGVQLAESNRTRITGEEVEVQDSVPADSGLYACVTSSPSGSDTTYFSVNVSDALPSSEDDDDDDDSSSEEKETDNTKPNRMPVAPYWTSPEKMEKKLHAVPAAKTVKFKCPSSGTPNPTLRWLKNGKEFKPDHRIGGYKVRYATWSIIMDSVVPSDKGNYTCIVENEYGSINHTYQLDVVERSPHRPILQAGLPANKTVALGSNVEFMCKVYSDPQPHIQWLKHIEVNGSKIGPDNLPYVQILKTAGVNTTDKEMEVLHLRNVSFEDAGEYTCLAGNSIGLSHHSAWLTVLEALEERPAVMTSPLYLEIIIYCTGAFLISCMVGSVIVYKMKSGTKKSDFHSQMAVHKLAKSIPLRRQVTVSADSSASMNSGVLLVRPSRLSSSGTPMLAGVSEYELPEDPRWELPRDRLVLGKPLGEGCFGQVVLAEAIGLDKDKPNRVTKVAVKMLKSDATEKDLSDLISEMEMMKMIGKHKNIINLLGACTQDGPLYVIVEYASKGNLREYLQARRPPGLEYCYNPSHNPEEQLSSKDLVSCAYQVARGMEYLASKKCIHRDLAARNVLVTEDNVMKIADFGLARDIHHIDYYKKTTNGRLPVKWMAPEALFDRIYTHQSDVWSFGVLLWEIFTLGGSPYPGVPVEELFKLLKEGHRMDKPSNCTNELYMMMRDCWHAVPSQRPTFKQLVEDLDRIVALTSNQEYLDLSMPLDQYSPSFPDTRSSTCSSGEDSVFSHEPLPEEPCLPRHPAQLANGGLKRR
Chain of FGFR3 (P22607 whole entry, looked up): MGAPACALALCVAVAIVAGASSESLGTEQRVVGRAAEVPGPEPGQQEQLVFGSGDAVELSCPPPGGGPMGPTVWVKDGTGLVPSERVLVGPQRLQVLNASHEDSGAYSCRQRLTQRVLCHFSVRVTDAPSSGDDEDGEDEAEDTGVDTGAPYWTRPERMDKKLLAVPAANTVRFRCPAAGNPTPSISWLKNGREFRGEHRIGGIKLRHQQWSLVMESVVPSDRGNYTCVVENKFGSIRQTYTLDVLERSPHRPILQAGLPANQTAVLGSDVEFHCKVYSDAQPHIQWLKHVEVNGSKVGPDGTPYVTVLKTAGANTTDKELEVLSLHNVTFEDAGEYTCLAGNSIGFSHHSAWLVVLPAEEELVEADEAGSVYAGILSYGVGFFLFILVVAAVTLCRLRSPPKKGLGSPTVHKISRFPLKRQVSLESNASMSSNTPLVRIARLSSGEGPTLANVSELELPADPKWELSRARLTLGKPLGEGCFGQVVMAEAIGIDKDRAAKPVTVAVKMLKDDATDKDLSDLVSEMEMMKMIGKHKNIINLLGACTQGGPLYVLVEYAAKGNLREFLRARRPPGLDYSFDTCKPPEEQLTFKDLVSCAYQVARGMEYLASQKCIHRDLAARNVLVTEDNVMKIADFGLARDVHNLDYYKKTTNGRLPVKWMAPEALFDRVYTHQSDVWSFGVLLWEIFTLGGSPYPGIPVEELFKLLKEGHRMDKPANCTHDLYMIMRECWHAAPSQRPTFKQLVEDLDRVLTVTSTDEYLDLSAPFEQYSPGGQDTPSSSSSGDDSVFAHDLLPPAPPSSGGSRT

LLREWYLQDPY [SIX3_Y225]
phosphorylation enrichment [1]: 0.867
phosphorylation enrichment [2]: 1.52
phosphorylation enrichment [3]: 1.12
phosphorylation enrichment [4]: 0.606
phosphorylation enrichment [5]: 0.947
phosphorylation enrichment [6]: 1.11
phosphorylation enrichment [7]: 0.85
phosphorylation enrichment [8]: 1.11
phosphorylation enrichment [9]: 1.08
phosphorylation enrichment [10]: 0.928
phosphorylation enrichment [11]: 1.52
phosphorylation enrichment [12]: 0.938
phosphorylation enrichment [13]: 1.11
SH2 binding enrichment [14]: 0.76
SH2 binding enrichment [15]: 1.28
SH2 binding enrichment [16]: 1.43

RLNCIYFKDQT [RS1_Y165_W163C_YF]
phosphorylation enrichment [1]: 0.683
phosphorylation enrichment [2]: 1.32
phosphorylation enrichment [3]: 0.599
phosphorylation enrichment [4]: 0.871
phosphorylation enrichment [5]: 0.827
phosphorylation enrichment [6]: 1.08
phosphorylation enrichment [7]: 0.77
phosphorylation enrichment [8]: 1.3
phosphorylation enrichment [9]: 0.59
phosphorylation enrichment [10]: 0.732
phosphorylation enrichment [11]: 1.16
phosphorylation enrichment [12]: 0.56
phosphorylation enrichment [13]: 1.05
SH2 binding enrichment [14]: 0.711
SH2 binding enrichment [15]: 0.818
SH2 binding enrichment [16]: 1.05

DFLEKYFKFGS [NNMT_Y24_YF]
phosphorylation enrichment [1]: 0.491
phosphorylation enrichment [2]: 1.41
phosphorylation enrichment [3]: 0.826
phosphorylation enrichment [4]: 0.564
phosphorylation enrichment [5]: 0.525
phosphorylation enrichment [6]: 0.627
phosphorylation enrichment [7]: 0.521
phosphorylation enrichment [8]: 1.8
phosphorylation enrichment [9]: 0.437
phosphorylation enrichment [10]: 0.587
phosphorylation enrichment [11]: 1.12
phosphorylation enrichment [12]: 0.514
phosphorylation enrichment [13]: 0.936
SH2 binding enrichment [14]: 0.579
SH2 binding enrichment [15]: 0.386
SH2 binding enrichment [16]: 0.764

LLASGYDSPIN [ABLIM1_Y638_R637G]
phosphorylation enrichment [1]: 0.859
phosphorylation enrichment [2]: 1.28
phosphorylation enrichment [3]: 1.09
phosphorylation enrichment [4]: 0.52
phosphorylation enrichment [5]: 0.764
phosphorylation enrichment [6]: 0.556
phosphorylation enrichment [7]: 0.783
phosphorylation enrichment [8]: 0.737
phosphorylation enrichment [9]: 0.529
phosphorylation enrichment [10]: 0.825
phosphorylation enrichment [11]: 1.33
phosphorylation enrichment [12]: 0.423
phosphorylation enrichment [13]: 1.03
SH2 binding enrichment [14]: 1.84
SH2 binding enrichment [15]: 0.653
SH2 binding enrichment [16]: 0.615

IVEELYAIPPD [PEAK1_Y797_S792I]
phosphorylation enrichment [1]: 6.62
phosphorylation enrichment [2]: 1.26
phosphorylation enrichment [3]: 6.02
phosphorylation enrichment [4]: 8.66
phosphorylation enrichment [5]: 4.29
phosphorylation enrichment [6]: 3.23
phosphorylation enrichment [7]: 4.27
phosphorylation enrichment [8]: 1.27
phosphorylation enrichment [9]: 3.48
phosphorylation enrichment [10]: 13.3
phosphorylation enrichment [11]: 3.84
phosphorylation enrichment [12]: 6.14
phosphorylation enrichment [13]: 10
SH2 binding enrichment [14]: 0.564
SH2 binding enrichment [15]: 0.68
SH2 binding enrichment [16]: 0.88

PQGVRYIFTID [DCX_Y103_YF]
phosphorylation enrichment [1]: 0.61
phosphorylation enrichment [2]: 3.66
phosphorylation enrichment [3]: 0.96
phosphorylation enrichment [4]: 0.664
phosphorylation enrichment [5]: 0.587
phosphorylation enrichment [6]: 0.587
phosphorylation enrichment [7]: 0.714
phosphorylation enrichment [8]: 1.89
phosphorylation enrichment [9]: 0.617
phosphorylation enrichment [10]: 0.524
phosphorylation enrichment [11]: 1.68
phosphorylation enrichment [12]: 0.826
phosphorylation enrichment [13]: 1.38
SH2 binding enrichment [14]: 0.654
SH2 binding enrichment [15]: 1.09
SH2 binding enrichment [16]: 0.602

KRLDGYVLEGW [IGSF9_Y656_R661W]
phosphorylation enrichment [1]: 0.542
phosphorylation enrichment [2]: 0.835
phosphorylation enrichment [3]: 0.511
phosphorylation enrichment [4]: 0.381
phosphorylation enrichment [5]: 0.48
phosphorylation enrichment [6]: 0.418
phosphorylation enrichment [7]: 0.453
phosphorylation enrichment [8]: 0.651
phosphorylation enrichment [9]: 0.484
phosphorylation enrichment [10]: 0.484
phosphorylation enrichment [11]: 0.712
phosphorylation enrichment [12]: 0.506
phosphorylation enrichment [13]: 0.532
SH2 binding enrichment [14]: 2.36
SH2 binding enrichment [15]: 0.819
SH2 binding enrichment [16]: 0.844

KDIENYIQDGK [RAD50_Y964]
phosphorylation enrichment [1]: 0.543
phosphorylation enrichment [2]: 0.965
phosphorylation enrichment [3]: 0.616
phosphorylation enrichment [4]: 0.464
phosphorylation enrichment [5]: 0.504
phosphorylation enrichment [6]: 0.461
phosphorylation enrichment [7]: 0.45
phosphorylation enrichment [8]: 0.82
phosphorylation enrichment [9]: 0.433
phosphorylation enrichment [10]: 0.515
phosphorylation enrichment [11]: 0.923
phosphorylation enrichment [12]: 0.416
phosphorylation enrichment [13]: 0.639
SH2 binding enrichment [14]: 0.526
SH2 binding enrichment [15]: 0.687
SH2 binding enrichment [16]: 0.979

CNLDTYQKRLR [PLA2G2D_Y126_R121C]
phosphorylation enrichment [1]: 0.532
phosphorylation enrichment [2]: 0.624
phosphorylation enrichment [3]: 0.462
phosphorylation enrichment [4]: 0.434
phosphorylation enrichment [5]: 0.463
phosphorylation enrichment [6]: 0.473
phosphorylation enrichment [7]: 0.475
phosphorylation enrichment [8]: 0.563
phosphorylation enrichment [9]: 0.463
phosphorylation enrichment [10]: 0.582
phosphorylation enrichment [11]: 0.65
phosphorylation enrichment [12]: 0.395
phosphorylation enrichment [13]: 0.592
SH2 binding enrichment [14]: 0.629
SH2 binding enrichment [15]: 0.78
SH2 binding enrichment [16]: 0.974

GHLYACDWISI [BEST1_Y227_Y227C]
phosphorylation enrichment [1]: 0.902
phosphorylation enrichment [2]: 1.43
phosphorylation enrichment [3]: 1.06
phosphorylation enrichment [4]: 4.89
phosphorylation enrichment [5]: 1.3
phosphorylation enrichment [6]: 1.34
phosphorylation enrichment [7]: 0.846
phosphorylation enrichment [8]: 1.18
phosphorylation enrichment [9]: 1.06
phosphorylation enrichment [10]: 0.929
phosphorylation enrichment [11]: 1.21
phosphorylation enrichment [12]: 0.677
phosphorylation enrichment [13]: 1.05
SH2 binding enrichment [14]: 0.771
SH2 binding enrichment [15]: 0.676
SH2 binding enrichment [16]: 0.799

ADEEEYEIIAA [FEStide_E_2014]
phosphorylation enrichment [1]: 0.635
phosphorylation enrichment [2]: 1.32
phosphorylation enrichment [3]: 1.08
phosphorylation enrichment [4]: 0.564
phosphorylation enrichment [5]: 0.662
phosphorylation enrichment [6]: 0.724
phosphorylation enrichment [7]: 0.654
phosphorylation enrichment [8]: 1.45
phosphorylation enrichment [9]: 0.619
phosphorylation enrichment [10]: 0.683
phosphorylation enrichment [11]: 1.74
phosphorylation enrichment [12]: 0.73
phosphorylation enrichment [13]: 1.09
SH2 binding enrichment [14]: 0.521
SH2 binding enrichment [15]: 0.97
SH2 binding enrichment [16]: 0.711

VNRSGYTLIRK [ATP6V0A2_Y688]
phosphorylation enrichment [1]: 0.315
phosphorylation enrichment [2]: 0.672
phosphorylation enrichment [3]: 0.452
phosphorylation enrichment [4]: 0.386
phosphorylation enrichment [5]: 0.333
phosphorylation enrichment [6]: 0.43
phosphorylation enrichment [7]: 0.429
phosphorylation enrichment [8]: 0.429
phosphorylation enrichment [9]: 0.533
phosphorylation enrichment [10]: 0.444
phosphorylation enrichment [11]: 0.64
phosphorylation enrichment [12]: 0.366
phosphorylation enrichment [13]: 0.568
SH2 binding enrichment [14]: 1.74
SH2 binding enrichment [15]: 0.814
SH2 binding enrichment [16]: 0.56

YRTPGYREVVI [TNS2_Y673_A670T]
phosphorylation enrichment [1]: 0.42
phosphorylation enrichment [2]: 0.721
phosphorylation enrichment [3]: 0.447
phosphorylation enrichment [4]: 0.472
phosphorylation enrichment [5]: 0.358
phosphorylation enrichment [6]: 0.465
phosphorylation enrichment [7]: 0.341
phosphorylation enrichment [8]: 0.587
phosphorylation enrichment [9]: 0.425
phosphorylation enrichment [10]: 0.453
phosphorylation enrichment [11]: 0.799
phosphorylation enrichment [12]: 0.399
phosphorylation enrichment [13]: 1.23
SH2 binding enrichment [14]: 0.753
SH2 binding enrichment [15]: 1.03
SH2 binding enrichment [16]: 0.941

VMTLDYSKTVV [SETD2_Y770_V768L]
phosphorylation enrichment [1]: 0.419
phosphorylation enrichment [2]: 0.738
phosphorylation enrichment [3]: 0.701
phosphorylation enrichment [4]: 0.372
phosphorylation enrichment [5]: 0.571
phosphorylation enrichment [6]: 0.415
phosphorylation enrichment [7]: 0.439
phosphorylation enrichment [8]: 0.775
phosphorylation enrichment [9]: 0.37
phosphorylation enrichment [10]: 0.52
phosphorylation enrichment [11]: 0.719
phosphorylation enrichment [12]: 0.449
phosphorylation enrichment [13]: 0.643
SH2 binding enrichment [14]: 0.458
SH2 binding enrichment [15]: 0.722
SH2 binding enrichment [16]: 0.845

PRARTYCYKQE [KLHDC9_Y175_S171R]
phosphorylation enrichment [1]: 0.497
phosphorylation enrichment [2]: 1.01
phosphorylation enrichment [3]: 0.557
phosphorylation enrichment [4]: 0.483
phosphorylation enrichment [5]: 0.467
phosphorylation enrichment [6]: 0.667
phosphorylation enrichment [7]: 0.435
phosphorylation enrichment [8]: 0.981
phosphorylation enrichment [9]: 0.527
phosphorylation enrichment [10]: 0.574
phosphorylation enrichment [11]: 0.847
phosphorylation enrichment [12]: 0.716
phosphorylation enrichment [13]: 0.91
SH2 binding enrichment [14]: 0.661
SH2 binding enrichment [15]: 0.834
SH2 binding enrichment [16]: 1.27

AVISVYDLVVV [PSEN1_Y256_A260V]
phosphorylation enrichment [1]: 0.726
phosphorylation enrichment [2]: 1.46
phosphorylation enrichment [3]: 1.02
phosphorylation enrichment [4]: 6.78
phosphorylation enrichment [5]: 5.61
phosphorylation enrichment [6]: 3.85
phosphorylation enrichment [7]: 4.14
phosphorylation enrichment [8]: 1.29
phosphorylation enrichment [9]: 5.2
phosphorylation enrichment [10]: 4.03
phosphorylation enrichment [11]: 1.54
phosphorylation enrichment [12]: 13.3
phosphorylation enrichment [13]: 1
SH2 binding enrichment [14]: 0.797
SH2 binding enrichment [15]: 1.03
SH2 binding enrichment [16]: 0.984

TDTQLYGRFGS [ITGA2B_Y384_G380D]
phosphorylation enrichment [1]: 0.487
phosphorylation enrichment [2]: 0.888
phosphorylation enrichment [3]: 0.464
phosphorylation enrichment [4]: 0.98
phosphorylation enrichment [5]: 0.608
phosphorylation enrichment [6]: 7.4
phosphorylation enrichment [7]: 9.16
phosphorylation enrichment [8]: 0.645
phosphorylation enrichment [9]: 11.1
phosphorylation enrichment [10]: 0.583
phosphorylation enrichment [11]: 0.783
phosphorylation enrichment [12]: 0.479
phosphorylation enrichment [13]: 0.769
SH2 binding enrichment [14]: 0.418
SH2 binding enrichment [15]: 0.656
SH2 binding enrichment [16]: 0.734

From the supplement of paper PMC10065799, “High-throughput profiling of sequence recognition by tyrosine kinases and SH2 domains using bacterial peptide display” (eLife, 2023)
